Holding throughout (assay): phage ELISA, apparent Kd; PBS, 50 uM ZnCl2, 20 C
Settings in all cases: protein: virion; tags: phage fd pIII fusion (Fd-Tet-SN), Zif268 framework; label: 5' biotin

The target in data set [1] is zfHAE(M). As for the experimental part:
(§1) Binding sites are synthesised as described above, including biotinylated sites where 5-meC (M) is replaced by a C or T (with appropriate bases in the complementary strand). Two-fold dilutions of DNA are added to separate wells of a streptavidin-coated microtitre plate (Boehringer Mannheim) in 50 µl PBS containing 50 µM ZnCl_2 (PBS/Zn). Phage solution (bacterial culture supernatant diluted 1:10 in PBS/Zn containing 2% (w/v) fat-free dried milk (Marvel), 1% (v/v) Tween and 20 µg/ml sonicated salmon sperm DNA) are applied to each well (50 µl/well). Binding is allowed to proceed for one hour at 20° C. Unbound phage are removed by washing 6 times with PBS/Zn containing 1% (v/v) Tween, then 3 times with PBS/Zn. Bound phage are detected by ELISA using horseradish peroxidase-conjugated anti-M13 IgG (Pharmacia Biotech) and the colourimetric signal quantitated using SOFTMAX 2.32 (Molecular Devices).
(§2) Zinc finger phage binding for each of the above clones is titrated against different amounts of methylated and unmethylated DNA oligos to derive values of the apparent dissociation constants (K_ds) for either DNA binding site (see FIGS. 4 and 5). The apparent Kd of each clone for the optimally bound DNA site(s) is in the nanomolar range, similar to that of wild-type Zif268 DNA-binding domain for its preferred target site using this assay. Clones zfHAE(M) (Table 1 F1: SEQ ID NO.:20; F2: SEQ ID NO.:25; F3: SEQ ID NO.:30) and zfHHA(M) (Table 1 F1: SEQ ID NO.:21; F2: SEQ ID NO.:26; F3: SEQ ID NO.:31) preferentially bind their respective DNA target sites when 5-meC is incorporated into the correct nucleotide positions, and discriminated against the unmethylated DNA sites by factors of approximately 20-fold and 5-fold, respectively.

The target of another data set is zfHAE(Y). Here is the method: as §1, §2
Data set [2] addresses zfHAE(M). As for the experimental part: as §1
The source holds these as a separate data set.

The target in the next data set is zfHHA(M). As for the experimental part: as §1, §2
In another data set the target is zfHHA(Y). Here is the method:
as §1, §2

Experimental findings from US6977154, “Nucleic acid binding proteins” (Gendaq Limited) are described below.

B1: HAE(M) G-GGMC-GGCG (dsDNA)
DNA 1: TATAGTGGGCCGGCGTGTCACAGTCAGTCCACACACGTC
DNA 2: GACGTGTGTGGACTGACTGTGACACGCCGGCCCACTATA
modifications: 5mC at M (G-GGMC-GGCG), both strands [10 (5mC)]
In the case of B1, the Kd with zfHAE(M) [1] is 2 nM; with zfHAE(Y), 6.3 nM.

B2: HAE(T) G-GGTC-GGCG (dsDNA)
DNA 1: TATAGTGGGTCGGCGTGTCACAGTCAGTCCACACACGTC
DNA 2: GACGTGTGTGGACTGACTGTGACACGCCGACCCACTATA
Consider B2, for which, in the data set with zfHAE(M) [2], the Kd was 27 nM.

B3: HHA(M) G-GMGC-GGCG (dsDNA)
DNA 1: TATAGTGGCGCGGCGTGTCACAGTCAGTCCACACACGTC
DNA 2: GACGTGTGTGGACTGACTGTGACACGCCGCGCCACTATA
modifications: 5mC at M (G-GMGC-GGCG), both strands [5mC at 9 (top strand); bottom-strand 5mC opposite G10]
Turning to B3, the Kd with zfHHA(M) and in the data set with zfHHA(Y) was 14 nM in each case.
